Measurements taken from US20240240160A1, “NOVEL OLIVETOL SYNTHASES FOR C[…]” (priority 2021, published 2024).

System: E. coli derivative strain which overexpressed an acyl-CoA synthetase (fadD) gene and expressed an olivetolic acid cyclase (OAC) from Cannabis sativa
Assay: OL, OLA and PDAL production in E. coli from plasmid-expressed Type-III PKS genes
Type: cell-based
Settings: gene on plasmid; for Total: OL + OLA + PDAL; for OL / OLA / PDAL: constitutive promoter, culture spiked with 4 mM hexanoic acid
Description: To test olivetolic acid production in E. coli, strains comprising a putative OLS gene and an OAC gene from C. sativa were inoculated in multi-well plates containing LB supplemented with 1% glucose and appropriate concentrations of antibiotics. After 6 hours of cultivation at 32° C., the cells were transferred with a 10% inoculum to a P-limited seed medium (see Table 2) and cultivated for ˜18 hours at 32° ° C. to reach an OD of 2.0-4.0. The cultures were transferred with a 20% inoculum in a P-minimal medium (see Table 3) supplemented with 2% glucose and appropriate concentrations of antibiotics. After 3 hours of cultivation at 32° C., the culture was spiked with 4 mM hexanoic acid (˜OD 1.5-2.0). The resulting cultures were then harvested at either 3 hours or 21 hours post hexanoic acid spike; a final OD was taken. 300 μL of butyl acetate containing 500 mg/L undecanoic acid was added to each multi-well plate. The plates were then vortexed for 30 minutes at 1500 rpm and centrifuged for 10 minutes at 4500 rpm. 50 μL of organic layer was transferred to a 96-well plate and derivatized with 50 μL of N,O-Bis(trimethylsilyl)trifluoroacetamide (BSTFA). The plate was then incubated at room temperature for 2 hours to allow for complete derivatization. The samples were then run on GC-FID for analytical quantification of olivetolic acid (OLA), olivetol (OL), PDAL, and hexanoic acid.
Olivetol, PDAL, OLA, HTAL, CBGA and combinations thereof were analyzed by LCMS or LCMS/MS methods using C18 reversed phase chromatography coupled to either EXACTIVE™ (ThermoFisher) or QTRAP® 4500 (Sciex) mass spectrometers.
For reversed phase LCMS, compounds were identified by their LC retention times and MRM transitions specific to the compounds. LCMS/MS analysis was conducted on a Shimadzu UHPLC system coupled with AB Sciex QTRAP 4500 mass spectrometer. Agilent Eclipse XDB C18 column (4.6×3.0 mm, 1.8 μm) was used with a 1-min gradient elution at 1 mL/min using water containing 0.1% ammonia acetate as mobile phase A and 90% methanol containing 0.1% ammonia acetate as mobile phase B. The LC column temperature was maintained at 45° C. Negative ionization mode was used for all the analytes.
The genes for 20 Type-III PKS enzymes were codon optimized for E. coli and cloned under control of a constitutive promoter into an expression vector (p15a replicon, carbenicillin resistance marker). The 20 plasmids were transformed into an E. coli derivative strain which overexpressed an acyl-CoA synthetase (fadD) gene and expressed an olivetolic acid cyclase (OAC) from Cannabis sativa.
The in vivo assay procedure and analytical methods were performed as described above.

Molecule	Total [µM]	OL [µM]	OLA [µM]	PDAL [µM]	levels of OLA relative to the E. coli strain with OLS from C. sativa
XP_020591420.1: Type-III PKS enzyme from Phalaenopsis equestris (protein, listed as Phalaenopsis equestris, (1)..(387) XP_020591420.1) MPNMESIKKEDGLATIMAIGRALPPNSIDQNSFPDFYFRVHNSEHLMDLKNKFRRICERTAIRKRHFVWNEEVLKQNPCLRTFMEPSLNTRQEIVCSEIPKLGAEAARNAIREWGQPERSITHLIFCTTSGMNLPGADFEAAQILGLNHSVERVMLYQQGCFAGGTVLRLAKCLAESRRGARVLVICAESTTSLVRSPSREHQYDLIAQALFADGASALIIGTEPNAEAGERPIFSIFSTAQVTLPDSGDAIRGYLKEGGLIATLAKDVPLIISENIERCLQEAFGPLGISDWNSIFWAPHPGGRAILDGIEDKLGLKPEKLWAARHVLAEYGNMSSVCVHYILDEMRRRDVKNGKAPTGDGPEWGVLFGFGPGLTVETVVLRRLFL	468	54	36	378	
CAA10514.1: Type-III PKS enzyme from Bromheadia finlaysoniana (protein, listed as Bromheadia finlaysoniana, (1)..(394) CAA10514.1) MASQVSPPSINMAPKADGFASILAIGRANPKNFIEQSTFPDFFFRVTNTEHMVDLKKKFQRICDKTSIRKRHFIWNEELLTANPSLCTFMGNSLNLRHEVAVREIPKLGAEAATKAIQEWGQPKSFITHLVFCTTSGMDLPGADYQLTQILGLNLDIERVMLHQQGCFLGGTTLRLAKYLAESRKGARVLVVCAETTTEFFRAPSEEHQEDLVTQSLFGDGASALIVGADPHEGARERASFILVSSSQVLLANSAHAITGHVSEGGIKATLHRDVPQIISNNLGKCLEEAFTPLGISDWNSIFWVLHPGGRAILDQVEEKMGLEPEKLLISRHVLLEYGNMSSVCVHFALDEMRKRSSNEGKATTGEGLEWGVLFGFGPGLTIETVVLRSVSIS	61	0	0	61	
PKA53998.1: Type-III PKS enzyme from Apostasia shenzhenica (protein, listed as Apostasia shenzhenica, (1)..(393) PKA53998.1) MPGLQIISKASSRAADGLAAILAIGRANPPNSMDQSSYPEFYFRVMDSDHLVDLKKKFQRICERTAIRKRHFVWNEELLRDNPCLRTFMDSSLNVRQKVAVAEIPKLGAAAAERAIEEWGQPRSGITHLIFCTTSGMDLPGADYQLTKILGLNADVQRVMLYQQGCFAGGTVLRLAKVLAESRKGARVLVVCAETTTVLIRAPSVEHQDDLVTQALFADGASALIVGADPVEEVNERPLFSIISASQVILPDSDGAIGGHLGEGGLTATLHRDVPLIISKNVSKCLEDAFSPLGISDWNSIFWAPHPGGRAILDQVEERVGLKPEKMWASRHVLAEYGNMSSVCVHFVLDEMRKRSAKEGKPTTGEGLEWGVLFGFGPGLTVETVVLRSHPIN	1005	268	256	481	
AAX54693.1: Type-III PKS enzyme from Phalaenopsis hybrid cultivar (protein, Phalaenopsis hybrid cultivar; (1)..(390) AAX54693.1) MPTIESIKKAPRAHGFASILAIGKANPENFIEQCHYPDFYFRVTSSEHLVDLKEKFQRMCDRTAIRKRHFVWNEDLLTANPCLRTYMDKSLNIRQEVAIREIPKLGAEAATKAIQEWGQPKSSITHLIFCTTSGMDLPGADFQLTQILGLNPNVERVMLYQQGCFAGGTTLRLAKCLAESREGARVLVVCAETTTVVFRAPSEEHQDDLVTQALFADGASAVIVGVDPNEAAHERASFIIVSASQVLLPDSAGAIGGHVSEGGLTATLHRDVPQIVSKNVGKCLEEAFTPFGISDWNSIFWVPHAGGRAILDQVEERVGLKPEKLSVSRHVLAEYGNMSSVCVHFALDEMRKKSAKEAKATTGEGLEWGVLFGFGPGLTVETVVLHSVPI	1874	606	653	615	over two-fold
AFU07719.1: Type-III PKS enzyme from Paphiopedilum purpuratum (protein, listed as Paphiopedilum purpuratum, (1)..(394) AFU07719.1) MPGLENRKKVEAPKRAEGLATILAIGRANPPNDMEQSTFPDFYFRVTNSEHLVSLKKKFERICEKTAIRRRHFVWNEEILNANPCLRTHMEPSLNVRQKIAVAEIPKLGAEAASRAIEEWGQPKSHITHLIFCTTSGMDLPGADYKLTRILGLNPNVQRVMLYQQGCFAGGTVLRLAKCFAESQKGARVLVVCSETTTVLVRAPSEDYQDDLVTQALFADGASALIVGADPDEEAKEQPIFTIVSATQVILPDSDGAIGGHLGEGGLTATLHRDVPLIISKNVSKCLEEAFGPLGISDWNSIFWAPHPGGRAILDQVEERVGLKPEKLWASRHVLAEYGNMSSVCVHFVLDEIRKRSTKEGKTTTGEGFDWGVLFGFGPGLTVETVILRSVPLN	1406	289	302	815	
AHH25569.1: Type-III PKS enzyme from Bletilla striata (protein, listed as Bletilla striata, (1)..(390) AHH25569.1) MPSLDSIKKAPRADGIASILAIGRANPDNIIEQSAYPDFYFRVTNSEHLVDLKKKFQRICEKTAIRKRHFVWNEEFLTSNPSFSTFMDKSLYVRQEVAIREIPKLGAKAATKAIEDWGQPKSRISHLIFCTTSGMDLPGADYQLTQILGLNPNVERLMLYEQGCFAGGTTLRLAKCLAESRKGARVLVVCAETTTVLFRAPSEEHQDDLVTQALFADGASALIVGADPDEAADERASFVIVSTSQVLLPDTAGAIGGHVSEGGLLATLHRDVPQIVTKNVGKCLEEAFTPFGISDWNSIFWVPHPGGRAILDQVEERVGLKPEKLSVSRHVLAEYGNMSSVCVHFALDEMRKRSANEGKPTTGEGLEWGVLFGFGPGLTVETVVLRSVPL	320	93	98	129	
AFU07718.1: Type-III PKS enzyme from Paphiopedilum micranthum (protein, listed as Paphiopedilum micranthum, (1)..(394) AFU07718.1) MPGLENRKKVEAPIRAEGLATIMAIGRANPPNAMEQSTFPDFYFRVTNSEHLVGLKKKFQRICEKTAIRRRHFVWNEEILNANPCLRTHMEPSLNVRQKIAVAEIPKMGAEAASRAIEEWGQSKSRITHLIFCTTSGMDLPGADYQLTRILGLNPNVQRVMLYQQGCFAGGTVLRLAKCLAESQKGARVLVVCSETTAVLVRAPSEEYHDDLVTQALFADGASALIVGADPDEEAKERPIFTIVSTTQVILPDSDGAIGGHLGEGGLTATLHRDVPLIISKNVSKCLEEAFTPLGISDWNSIFWAPHPGGRAILDQVEERASLKPEKLWASRHVLTEYGNMSSVCVHFVLDEIRKRSAKEGKATTGEGFDWGVLFGFGPGLTVETVVLRSVPLN	948	159	152	638	
XP_020704098.1: Type-III PKS enzyme from Dendrobium catenatum (protein, listed as Dendrobium catenatum, (1)..(390) XP_020704098.1) MPSLESIKKAPRADGFASILAIGRANPENFIEQSAYPDLFFRITNSEHLVDLKNKFKRICDKTAIRKRHFVWTEEFITANPCFSTFMDKSLNIRQEVAIREIPKLGAEAATKAIQEWGQPKSRITHLIFCTTSGMDLPGADYQLTQILGLNPNVERVMLYQQGCFAGGTTIRLAKCLAESRKGARVLVVCAETTTVLFRGPSEEHQDDLVTQALFADGASALIVGADPDEAADEHASFVIVSTSQVLLPDSAGAIGGHVSEGGLLATLHRDVPQIVSKNVGKCLEEAFTPLGISDWNSIFWVPHPGGRAILDQVEESVGLKPEKLFISRHVLAEYGNMSSVCVHFALDEMRKRSAKEGKATTGEGLEWGVLFGFGPGVTVETVILRSVPI	1072	432	390	250	
XP_020704102.1: Type-III PKS enzyme from Dendrobium catenatum (protein, listed as Dendrobium catenatum, (1)..(388) XP_020704102.1) MPSLESIKKAPRADGFASILAIGRANPENFIEQSAYPDLFFRITKSEHLVDLKNKFKRICDKTAIRKRHFVWTEEFITANPCFSTFMEKSLNIRQEVAIREIPKLGAEAAAKAIQEWGQPKSRITHLIFCTRSGMGLPGPDYQLTQILGLNPNVERVMIYQQGCFAGGTTLRLAKCLAESHKGARVLVVCAETSTVLFRAPSMEHQEDLVTQALFADGASALIVGADPDETADEHASFVIVSTSQVLLPESAGAIGGHVSEGGFLPMIHRDVPQIVSKNIGKCLEEAFTPLGIMDWNSIFWVPHPGGRAILDQLDERVGLKPEKLFISRHVLKEYGNMSSASVHFALDEMRKWSAKEGTTGEGLEWGVLFGFGPGVTVDTVVLRSVPI	148	26	19	102	
